Results on one substance are retold here after publication PMC13096800.

This test addresses apoptosis-inducing factor, mitochondrial (AIFM1) (human) (UniProt O95831). Put plainly: cross-linking; sulfo-SDA (0.5 mM) photo-cross-linking of AIFM1 at 1 mg/ml, pre-incubated on ice with 1 mM NADH for 1 h to induce dimerization; 10 mM HEPES-NaOH pH 7.8, 150 mM NaCl, 4 mM MgCl2, 0.5 mM TCEP; UVEN UV activation 0-180 s; SDS-PAGE, and LC-MS/MS of the 32-s sample.

For “apoptosis-inducing factor, mitochondrial (AIFM1) (from UniProt O95831 103-613) (natural protein)”, the stoichiometry N (usually a count of units in the complex or per binding partner) is 2.
